Experimental data taken from patent publication US11371056B2, “HPPD variants and methods of use” (BASF Agricultural Solutions Seed US LLC, priority 2017, dated 2022).

Tested on: Pseudomonas fluorescens HPPD polypeptide (wild-type and mutants)
Experiment: Coupled HPPD activity assay: turnover and residual turnover in crude HPPD polypeptide extracts with and without Cmpd. 1
Type: biochemical
Conditions: for Residual turnover [%]: 100 μM Cmpd. 1, normalised to turnover without inhibitor; for Turnover: absence of Cmpd. 1; for Turnover / Residual turnover: changes in absorbance (OD) at 320 nm in the coupled assay, 30 min; for Residual turnover: presence of 100 μM Cmpd. 1

Row | Molecule | Residual turnover [%] | Turnover | Residual turnover
1 | SEQ ID NO:41 (protein, mutant HPPD polypeptide) MADLYENPMGLMGFEFIEFASPTPGTLEPIFEIMGFTKVATHRSKNVHLYRQGEINLILNNEPNSIASYFAAEHGPSVCGMAFRVKDSQKAYNRALELGAQPIHIDTGPMELNLPAIKGIGGAPLYLIDRFGEGSSIYDIDFVYLEGVERNPVGAGLKVIDHLTHNVYRGRMVYWANFYEKLFNFREARYFDIKGEYTGLTSKAMSAPDGMIKIPLNEESSKGAGQIEEFLMQFNGEGIQHVAFLTDDLVKTWDALKKIGMRFMTAPGDEYYEMLEGRLPDHGEPVDQLQARGILLDGSSVEGDKRLLLQIFSERLMGPVFFEFIQRKGDDGFGPDSFKVLFESMERDQVRRGVLTAD | 43% | 0.247 | 0.105
2 | SEQ ID NO:44 (protein, mutant HPPD polypeptide) MADLYENPMGLMGFEFIEFASPTPGTLEPIFEIMGFTKVATHRSKNVHLYRQGEINLILNNEPNSIASYFAAEHGPSVCGMAFRVKDSQKAYNRALELGAQPIHIDTGPMELNLPAIKGIGGAPLYLIDRFGEGSSIYDIDFVYLEGVERNPVGAGLKVIDHLTHNVYRGRMVYWANFYEKLFNFREARYFDIKGEYTGLTSKAMSAPDGMIKIPLNEESSKGAGQIEEFLMQFNGEGIQHVAFLTDDLVKTWDALKKIGMRFMTAPGDEYYEMLEGRLPDHGEPVDQLQARGILLDGSSVEGDKRLLLQIFSEQLMGPVFFEFIQRKGDDGFGPHSFKVLFESMERDQVRRGVLTAD | 54% | 0.272 | 0.148
3 | SEQ ID NO:49 (protein, mutant HPPD polypeptide) MADLYENPMGLMGFEFIEFASPTPGTLEPIFEIMGFTKVATHRSKNVHLYRQGEINLILNNEPNSIASYFAAEHGPSVCGMAFRVKDSQKAYNRALELGAQPIHIDTGPMELNLPAIKGIGGAPLYLIDRFGEGSSIYDIDFVYLEGVERNPVGAGLKVIDHLTHNVYRGRMVYWANFYEKLFNFREARYFDIKGEYTGLTSKAMSAPDGMIKIPLNEESSKGAGQIEEFLMQFNGEGIQHVAFLTDDLVKTWDALKKIGMRFMTAPGDEYYEMLEGRLPDHGEPVDQLQARGILLDGSSVEGDKRLLLQIFSEQLMGPVFFEFIQRKGDDGFGPHSFKVLFESIERDQVRRGVLTAD | 52% | 0.318 | 0.165
4 | SEQ ID NO:46 (protein, mutant HPPD polypeptide) MADLYENPMGLMGFEFIEFASPTPGTLEPIFEIMGFTKVATHRSKNVHLYRQGEINLILNNEPNSIASYFAAEHGPSVCGMAFRVKDSQKAYNRALELGAQPIHIDTGPMELNLPAIKGIGGAPLYLIDRFGEGSSIYDIDFVYLEGVERNPVGAGLKVIDHLTHNVYRGRMVYWANFYEKLFNFREARYFDIKGEYTGLTSKAMSAPDGMIKIPLNEESSKGAGQIEEFLMQFNGEGIQHVAFLTDDLVKTWDALKKIGMRFMTAPGDEYYEMLEGRLPDHGEPVDQLQARGILLDGSSVEGDKRLLLQIFSEKLMGPVFFEFIQRKGDDGFGPDSFKVLFESIERDQVRRGVLTAD | 36% | 0.162 | 0.059
5 | SEQ ID NO:43 (protein, mutant HPPD polypeptide) MADLYENPMGLMGFEFIEFASPTPGTLEPIFEIMGFTKVATHRSKNVHLYRQGEINLILNNEPNSIASYFAAEHGPSVCGMAFRVKDSQKAYNRALELGAQPIHIDTGPMELNLPAIKGIGGAPLYLIDRFGEGSSIYDIDFVYLEGVERNPVGAGLKVIDHLTHNVYRGRMVYWANFYEKLFNFREARYFDIKGEYTGLTSKAMSAPDGMIKIPLNEESSKGAGQIEEFLMQFNGEGIQHVAFLTDDLVKTWDALKKIGMRFMTAPGDEYYEMLEGRLPDHGEPVDQLQARGILLDGSSVEGDKRLLLQIFSEKLMGPVFFEFIQRKGDDGFGPHSFKVLFESMERDQVRRGVLTAD | 54% | 0.291 | 0.157
6 | SEQ ID NO:45 (protein, mutant HPPD polypeptide) MADLYENPMGLMGFEFIEFASPTPGTLEPIFEIMGFTKVATHRSKNVHLYRQGEINLILNNEPNSIASYFAAEHGPSVCGMAFRVKDSQKAYNRALELGAQPIHIDTGPMELNLPAIKGIGGAPLYLIDRFGEGSSIYDIDFVYLEGVERNPVGAGLKVIDHLTHNVYRGRMVYWANFYEKLFNFREARYFDIKGEYTGLTSKAMSAPDGMIKIPLNEESSKGAGQIEEFLMQFNGEGIQHVAFLTDDLVKTWDALKKIGMRFMTAPGDEYYEMLEGRLPDHGEPVDQLQARGILLDGSSVEGDKRLLLQIFSETLMGPVFFEFIQRKGDDGFGPHSFKVLFESMERDQVRRGVLTAD | 60% | 0.275 | 0.164
7 | SEQ ID NO:48 (protein, mutant HPPD polypeptide) MADLYENPMGLMGFEFIEFASPTPGTLEPIFEIMGFTKVATHRSKNVHLYRQGEINLILNNEPNSIASYFAAEHGPSVCGMAFRVKDSQKAYNRALELGAQPIHIDTGPMELNLPAIKGIGGAPLYLIDRFGEGSSIYDIDFVYLEGVERNPVGAGLKVIDHLTHNVYRGRMVYWANFYEKLFNFREARYFDIKGEYTGLTSKAMSAPDGMIKIPLNEESSKGAGQIEEFLMQFNGEGIQHVAFLTDDLVKTWDALKKIGMRFMTAPGDEYYEMLEGRLPDHGEPVDQLQARGILLDGSSVEGDKRLLLQIFSETLMGPVFFEFIQRKGDDGFGPDSFKVLFESIERDQVRRGVLTAD | 38% | 0.161 | 0.061
8 | SEQ ID NO:47 (protein, mutant HPPD polypeptide) MADLYENPMGLMGFEFIEFASPTPGTLEPIFEIMGFTKVATHRSKNVHLYRQGEINLILNNEPNSIASYFAAEHGPSVCGMAFRVKDSQKAYNRALELGAQPIHIDTGPMELNLPAIKGIGGAPLYLIDRFGEGSSIYDIDFVYLEGVERNPVGAGLKVIDHLTHNVYRGRMVYWANFYEKLFNFREARYFDIKGEYTGLTSKAMSAPDGMIKIPLNEESSKGAGQIEEFLMQFNGEGIQHVAFLTDDLVKTWDALKKIGMRFMTAPGDEYYEMLEGRLPDHGEPVDQLQARGILLDGSSVEGDKRLLLQIFSERLMGPVFFEFIQRKGDDGFGPDSFKVLFESIERDQVRRGVLTAD | 68% | 0.09 | 0.061
9 | SEQ ID NO:42 (protein, mutant HPPD polypeptide) MADLYENPMGLMGFEFIEFASPTPGTLEPIFEIMGFTKVATHRSKNVHLYRQGEINLILNNEPNSIASYFAAEHGPSVCGMAFRVKDSQKAYNRALELGAQPIHIDTGPMELNLPAIKGIGGAPLYLIDRFGEGSSIYDIDFVYLEGVERNPVGAGLKVIDHLTHNVYRGRMVYWANFYEKLFNFREARYFDIKGEYTGLTSKAMSAPDGMIKIPLNEESSKGAGQIEEFLMQFNGEGIQHVAFLTDDLVKTWDALKKIGMRFMTAPGDEYYEMLEGRLPDHGEPVDQLQARGILLDGSSVEGDKRLLLQIFSETLMGPVFFEFIQRKGDDGFGPDSFKVLFESMERDQVRRGVLTAD | 33% | 0.209 | 0.068
